Experimental data published in publication PMC9169624, “Human HELB is a processive motor protein that catalyzes RPA clearance from single-stranded DNA” (Proceedings of the National Academy of Sciences of the …, 2022).

Biological target: human Replication Protein A (RPA) complex (human) (UniProt P27694)
Sequence (P27694 whole entry, chain 1 of 3): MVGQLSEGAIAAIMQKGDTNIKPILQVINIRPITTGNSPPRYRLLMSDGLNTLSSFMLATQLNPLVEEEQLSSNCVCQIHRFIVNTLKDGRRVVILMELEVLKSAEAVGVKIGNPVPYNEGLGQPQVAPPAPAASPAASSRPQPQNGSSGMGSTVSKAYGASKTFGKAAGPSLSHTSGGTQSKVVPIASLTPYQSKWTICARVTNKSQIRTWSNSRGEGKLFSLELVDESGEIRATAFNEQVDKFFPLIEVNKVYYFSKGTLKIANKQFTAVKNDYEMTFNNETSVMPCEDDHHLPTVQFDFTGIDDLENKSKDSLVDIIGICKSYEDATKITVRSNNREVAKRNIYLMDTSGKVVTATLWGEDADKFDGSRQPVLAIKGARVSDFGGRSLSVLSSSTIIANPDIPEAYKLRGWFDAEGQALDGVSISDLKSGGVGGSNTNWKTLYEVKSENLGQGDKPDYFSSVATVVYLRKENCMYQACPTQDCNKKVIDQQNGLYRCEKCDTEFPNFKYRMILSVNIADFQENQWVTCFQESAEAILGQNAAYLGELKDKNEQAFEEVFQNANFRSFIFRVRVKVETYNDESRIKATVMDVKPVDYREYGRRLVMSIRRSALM
Sequence (P15927 whole entry, chain 2 of 3, further chain): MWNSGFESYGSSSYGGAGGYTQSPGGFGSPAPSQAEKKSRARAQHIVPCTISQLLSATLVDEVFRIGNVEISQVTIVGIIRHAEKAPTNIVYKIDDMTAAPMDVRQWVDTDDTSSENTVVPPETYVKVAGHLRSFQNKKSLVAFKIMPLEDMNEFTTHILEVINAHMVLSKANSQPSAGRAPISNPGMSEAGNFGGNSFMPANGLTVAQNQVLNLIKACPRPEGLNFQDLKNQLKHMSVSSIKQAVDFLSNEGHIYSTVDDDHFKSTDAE
Sequence (P35244 whole entry, chain 3 of 3, further chain): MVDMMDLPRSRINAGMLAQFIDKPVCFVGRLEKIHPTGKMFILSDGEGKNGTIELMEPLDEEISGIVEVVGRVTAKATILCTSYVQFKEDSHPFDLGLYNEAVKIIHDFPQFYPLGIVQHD

Human DNA helicase B (HELB), sequence (Q8NG08 whole entry): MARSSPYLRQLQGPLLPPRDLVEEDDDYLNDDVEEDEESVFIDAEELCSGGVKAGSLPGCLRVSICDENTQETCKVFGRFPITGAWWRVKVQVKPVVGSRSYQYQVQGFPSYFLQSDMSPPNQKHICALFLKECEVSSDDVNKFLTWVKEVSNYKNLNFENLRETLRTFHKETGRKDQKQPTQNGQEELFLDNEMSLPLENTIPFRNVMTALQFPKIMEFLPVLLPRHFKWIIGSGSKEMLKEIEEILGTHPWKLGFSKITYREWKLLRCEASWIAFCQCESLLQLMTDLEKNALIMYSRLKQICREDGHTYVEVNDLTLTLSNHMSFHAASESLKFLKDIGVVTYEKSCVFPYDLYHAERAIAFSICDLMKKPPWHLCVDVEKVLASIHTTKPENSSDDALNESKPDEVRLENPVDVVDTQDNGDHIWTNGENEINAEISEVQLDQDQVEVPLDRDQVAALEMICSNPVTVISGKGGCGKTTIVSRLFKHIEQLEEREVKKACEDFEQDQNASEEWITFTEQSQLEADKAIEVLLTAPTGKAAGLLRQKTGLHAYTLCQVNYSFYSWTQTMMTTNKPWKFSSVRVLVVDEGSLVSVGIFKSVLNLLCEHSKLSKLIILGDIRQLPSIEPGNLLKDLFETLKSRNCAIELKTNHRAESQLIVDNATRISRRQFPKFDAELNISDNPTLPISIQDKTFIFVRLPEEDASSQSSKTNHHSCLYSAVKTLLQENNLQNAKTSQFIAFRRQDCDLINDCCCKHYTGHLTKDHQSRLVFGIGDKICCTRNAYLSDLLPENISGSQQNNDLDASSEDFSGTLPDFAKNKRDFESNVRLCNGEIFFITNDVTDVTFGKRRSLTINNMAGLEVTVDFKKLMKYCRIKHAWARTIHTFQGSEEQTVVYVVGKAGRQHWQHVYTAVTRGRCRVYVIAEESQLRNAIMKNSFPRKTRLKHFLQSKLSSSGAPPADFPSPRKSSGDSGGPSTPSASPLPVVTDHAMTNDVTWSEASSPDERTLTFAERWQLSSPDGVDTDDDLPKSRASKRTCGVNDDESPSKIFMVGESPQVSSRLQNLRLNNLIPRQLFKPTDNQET

“Human DNA helicase B (HELB) (from UniProt Q8NG08 1-1087) (enzyme)” gave an observed rate of ATP hydrolysis by HELB at low φX174 ssDNA (0.1 × KDNA), RPA titrated from one RPA per 200 nt to one RPA per 20 nt of 8 fold.
